Data published in patent US20120324600A1, “CONSTITUTIVE SYNTHETIC PLANT PROMOTERS AND METHODS OF USE” (SYNGENTA PARTICIPATIONS AG, priority 2010, published 2012).

What was measured:
Format in all cases: in vivo
[1] = test system: transgenic corn events; assay: Glyphosate phytotoxicity (percent injury) of transgenic corn events carrying promoter-EPSPS cassettes; details: maize; for efficiency in promoting expression of an operably linked heterologous sequence compared with unmodified cestrum virus promoter: EPSPS gene, glyphosate tolerance
Source text: SEQ ID NO: 8 was synthesized by Gene Art as a SanDI/BamHI fragment then ligated directly into a cloning vector harboring the EPSPS gene (cZmEPSPSct-01) to confer glyphosate tolerance (Terada, et al., (1995) A type I element composed of the hexamer (ACGTCA) and octamer (CGCGGATC) motifs plays a role(s) in meristematic expression of a wheat histone H3 gene in transgenic rice plants. Plant Molecular Biology 27: 17-26). SEQ ID NO: 9 was created by ligation of the xZmH3Cis DNA elements to the prCMP promoter as an NheI fragment such that these elements are 5′ to the TATA-BOX (Brignon, et al., (1993) Nuclease sensitivity and functional analysis of a maize histone H3 gene promoter. Plant Molecular Biology 22: 1007-1015).
See Table 9 for glyphosate phytotoxicity, in terms of percent injury. Plants were sprayed with an appropriate amount of glyphosate (i.e. 4× Touchdown®) at the V4 stage and the V8 stage. Percent injury was measured at 7 and 14 days after the V4 stage glyphosate spray, as well as 7 and 14 days after V8 stage glyphosate spray.

[2] = test system: transgenic soybean events; assay: tolerance to mesotrione herbicide spray of T1 transgenic soybean seedlings; details: sprayed at V2 stage, rated approximately 10 days post-application
Source text: (§1) The first generation transgenic soybean events (T1) harboring SEQ ID NO: 3, SEQ ID NO: 4, SEQ ID NO: 5, SEQ ID NO: 6, or SEQ ID NO: 7 were characterized for segregation analysis, oat HPPD protein expression and tolerance to mesotrione herbicide spray. The green leaf tissues from the first trifoliate of five independent events were sampled to determine the segregation ratios (homozygous, heterozygous or null) of the individual seedlings as determined by zygosity Taqman® assays and oat HPPD protein expression by ELISA. At the V2 stage, the seedlings were sprayed with the HPPD inhibiting herbicide mesotrione and tolerance rating determined approximately 10 days post-application.

[3] = test system: oat HPPD protein expression; assay: oat HPPD protein expression by ELISA in T1 transgenic soybean events; details: inferred from ELISA and mesotrione tolerance of HOM vs HET siblings
Source text: To express a synthetic oat (Avena sativa) 4-hydroxyphenylpyruvate dioxygenase (cAvHPPD) in stably transformed soybean, viral transcriptional and translational enhancers, and a minimal promoter were created by PCR or direct DNA synthesis and combined by standard DNA restriction digestion and ligation reactions. A synthetic plant promoter comprising defined components eFMV (SEQ ID NO: 1), eTMV (SEQ ID NO: 2), the Cauliflower Mosaic Virus 35S enhancer region (e35S) and a minimal promoter (pr35SCMP: Cestrum Yellow Leaf Curl virus TATA-box motif; no CAAT 35S-proximal promoter sequence) were combined to create SEQ ID NO: 3. Subsequently, SEQ ID NO: 3 was modified by digestion with a DNA restriction enzyme XhoI to remove defined components e35S, pr35SCMP (including the TATA-box motif) followed by a standard ligation reaction to create SEQ ID NO: 4. […] One skilled in the art would readily recognize other subelements which would be suitable to use.
The plasmids containing the synthetic plant promoter expression cassettes were transformed into soybean using Agrobacterium tumefaciens. […] Expression of cAvHPPD of surviving T0 plants was quantified by ELISA (Engvall E, Perlman P (1971). “Enzyme-linked immunosorbent assay (ELISA). Quantitative assay of immunoglobulin G”. Immunochemistry 8(9):871-874).
as §1

B1: SEQ ID NO: 8: synthetic plant promoter for maize, subelements eFMV, e35S, prTaHisH3, eTMV; 834 bp (nucleic acid)
DNA: AGCTGCTTGTGGGGACCAGACAAAAAAGGAATGGTGCAGAATTGTTAGGCGCACCTACCAAAAGCATCTTTGCCTTTATTGCAAAGATAAAGCAGATTCCTCTAGTACAAGTGGGGAACAAAATAACGTGGAAAAGAGCTGTCCTGACAGCCCACTCACTAATGCGTATGACGAACGCAGTGACGACCACAAAACTCGAGACTTTTCAACAAAGGGTAATATCCGGAAACCTCCTCGGATTCCATTGCCCAGCTATCTGTCACTTTATTGTGAAGATAGTGGAAAAGGAAGGTGGCTCCTACAAATGCCATCATTGCGATAAAGGAAAGGCTATCGTTGAAGATGCCTCTGCCGACAGTGGTCCCAAAGATGGACCCCCACCCACGAGGAGCATCGTGGAAAAAGAAGACGTTCCAACCACGTCTTCAAAGCAAGTGGATTGATGTGATATCTCCACTGACGTAAGGGATGACGAACAATCCCACTATCCTTCTGCCGGACCCAAGCTTTCGGCCACGTCACCAATCCGCGGCATTCCTACCCGGATCGCCATCTCGACCGTCCACTCCATCCGCATCCAACGGCAAGTACATGCCTCTCGTCCCCTCCCGAAAAACCAAAACCCAAACCCGCCCGCTCTCTCGGTGCTCCTCCTATTTAACTCCGCCCCGTCCCCTTCTTCCTCCTCACCCCAATCTCCCCAGCCCCCAACCACCAGAGCCTCCTCCTCCCCTCCGGCGCATCGACGACAAGGGATCCACCTCGAGTATTTTTACAACAATTACCAACAACAACAAACAACAAACAACATTACAATTACTATTTACAATTACACATGTAAACC
modifications: synthetic plant promoter
notes: synthetic plant promoter for maize, subelements eFMV, e35S, prTaHisH3, eTMV; 834 bp
[1]
  evidence of HDGS and HDMS: no evidence of HDGS and HDMS
  efficiency in promoting expression of an operably linked heterologous sequence compared with unmodified cestrum virus promoter: function at least as well on average as the unmodified cestrum virus promoter
[1]; listed as 8
  efficiency in promoting expression of an operably linked heterologous sequence compared with unmodified cestrum virus promoter: as efficient in promoting the expression of an operably linked heterologous sequence as an unmodified cestrum virus promoter

B2: SEQ ID NO: 9: synthetic plant promoter for maize, subelements eFMV, e35S, eNOS, prCMP, xZmH3Cis, eTMV; 1294 bp (nucleic acid)
DNA: AGCTGCTTGTGGGGACCAGACAAAAAAGGAATGGTGCAGAATTGTTAGGCGCACCTACCAAAAGCATCTTTGCCTTTATTGCAAAGATAAAGCAGATTCCTCTAGTACAAGTGGGGAACAAAATAACGTGGAAAAGAGCTGTCCTGACAGCCCACTCACTAATGCGTATGACGAACGCAGTGACGACCACAAAACTCGAGACTTTTCAACAAAGGGTAATATCCGGAAACCTCCTCGGATTCCATTGCCCAGCTATCTGTCACTTTATTGTGAAGATAGTGGAAAAGGAAGGTGGCTCCTACAAATGCCATCATTGCGATAAAGGAAAGGCTATCGTTGAAGATGCCTCTGCCGACAGTGGTCCCAAAGATGGACCCCCACCCACGAGGAGCATCGTGGAAAAAGAAGACGTTCCAACCACGTCTTCAAAGCAAGTGGATTGATGTGATATCTCCACTGACGTAAGGGATGACGAACAATCCCACTATCCTTCTGCCGGACCCTCATGAGCGGAGAATTAAGGGAGTCACGTTATGACCCCCGCCGATGACGCGGGACAAGCCGTTTTACGTTTGGAACTGACAGAACCGCAACGAAGCTTTGGCAGACAAAGTGGCAGACATACTGTCCCACAAATGAAGATGGAATCTGTAAAAGAAAACGCGTGAAATAATGCGTCTGACAAAGGTTAGGTCGGCTGCCTTTAATCAATACCAAAGTGGTCCCTACCACGATGGAAAAACTGTGCAGTCGGTTTGGCTTTTTCTGACGAACAAATAAGATTCGTGGCCGACAGGTGGGGGTCCACCATGTGAAGGCATCTTCAGACTCCAATAATGGAGCAATGACGTAAGGGCTTACGAAATAAGTAAGGGTAGTTTGGCATATGCTGGTGGCAGAGGGTGTGCTTCCCTGCTTGGGCGGGCACGCTGGGATGGCGAAAATTTTCGGAAGCGCTGGGATGGCGAAAATTTTCGGAAGCGCTGGGCGCTGGCGCGGGCGGCGGACAACTATGGGTCGTTGGATTGGGAATTGGGATGGAGGGCGAGGGTGTCGCTGCTGGCGGGGGTCGATCCGCGTGTTGAGCGATCTGCGAGGATTATGTCCACTCACCCGTCAGTCTATAAATACTTAGCCCCTCCCTCATTGTTAAGGGAGCAAAATCTCAGAGAGATAGTCCTAGAGAGAGAAAGAGAGCAAGTAGCCTAGAAGTGGATCCACCTCGAGTATTTTTACAACAATTACCAACAACAACAAACAACAAACAACATTACAATTACTATTTACAATTACACATGTAAACC
modifications: synthetic plant promoter
notes: synthetic plant promoter for maize, subelements eFMV, e35S, eNOS, prCMP, xZmH3Cis, eTMV; 1294 bp
[1]
  evidence of HDGS and HDMS: no evidence of HDGS and HDMS
  efficiency in promoting expression of an operably linked heterologous sequence compared with unmodified cestrum virus promoter: function at least as well on average as the unmodified cestrum virus promoter
[1]; listed as 9
  efficiency in promoting expression of an operably linked heterologous sequence compared with unmodified cestrum virus promoter: as efficient in promoting the expression of an operably linked heterologous sequence as an unmodified cestrum virus promoter

B3: SEQ ID NO: 4: synthetic plant promoter, subelements eFMV, eTMV; 267 bp (nucleic acid)
DNA: AGCTGCTTGTGGGGACCAGACAAAAAAGGAATGGTGCAGAATTGTTAGGCGCACCTACCAAAAGCATCTTTGCCTTTATTGCAAAGATAAAGCAGATTCCTCTAGTACAAGTGGGGAACAAAATAACGTGGAAAAGAGCTGTCCTGACAGCCCACTCACTAATGCGTATGACGAACGCAGTGACGACCACAAAACTCGAGTATTTTTACAACAATTACCAACAACAACAAACAACAAACAACATTACAATTACTATTTACAATTACA
modifications: synthetic plant promoter
notes: synthetic plant promoter, subelements eFMV, eTMV; 267 bp
[2]
  tolerance to mesotrione herbicide spray: improved tolerance to the HPPD inhibitor herbicide mesotrione
[3]
  transgene silencing in HOM plants: relieve transgene silencing
